In this experiment the target is pyruvate kinase M2 (PKM2), endogenous in mouse macrophages (mouse (endogenous in BMDMs or Raw 264.7)) (UniProt P52480). Nature of the experiment: cross-linking.

Chain of pyruvate kinase M2 (PKM2), endogenous in mouse macrophages, P52480 1-531 (enzyme; other documents disagree on this pair) (P52480 whole entry): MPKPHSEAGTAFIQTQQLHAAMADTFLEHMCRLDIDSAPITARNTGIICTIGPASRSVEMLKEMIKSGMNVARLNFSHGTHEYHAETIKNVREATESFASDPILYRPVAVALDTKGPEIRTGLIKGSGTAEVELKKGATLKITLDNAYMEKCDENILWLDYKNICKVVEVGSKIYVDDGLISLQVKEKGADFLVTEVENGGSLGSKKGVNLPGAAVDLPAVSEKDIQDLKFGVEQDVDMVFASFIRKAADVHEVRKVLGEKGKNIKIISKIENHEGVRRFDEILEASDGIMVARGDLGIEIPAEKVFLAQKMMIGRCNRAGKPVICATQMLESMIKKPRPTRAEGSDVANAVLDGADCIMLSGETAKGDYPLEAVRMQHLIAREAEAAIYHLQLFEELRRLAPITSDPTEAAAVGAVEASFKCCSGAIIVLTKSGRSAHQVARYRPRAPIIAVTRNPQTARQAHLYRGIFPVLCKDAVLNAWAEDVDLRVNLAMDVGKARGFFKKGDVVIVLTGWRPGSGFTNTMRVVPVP

As for “pyruvate kinase M2 (PKM2), endogenous in mouse macrophages, P52480 1-531 (enzyme; other documents disagree on this pair)”, the stoichiometry N – broadly, the number of molecules, sites or subunits per partner or assembly – stood at 4.
